# Experimental data taken from patent US20110311446A1 (DYAX, published 2011).
# Experiments:
# cMet-Fc fusion protein [1] = target: T1, cMet-Fc fusion protein (human, UniProt P08581 25-932); test: phage ELISA on cMet-Fc, competitor HGF 100 ng/mL
# T1 construct: extracellular domain; also called soluble cMet-Fc fusion protein; cMet-Fc (R&D Systems); not shown: Fc part, not described
# Description: (§1) These assays were conducted using the peptide-displaying phage discovered from the initial selection and screening campaigns using the first generation peptide libraries. Briefly, 96-well plates were coated overnight at 4 C with 0.5 μg/mL of cMet-Fc fusion protein or TRAIL-Fc fusion protein (background). The plates were blocked for 2 hours at 37 C with 3% BSA in PBST. […] This was followed by an addition of 30 μL of peptide-displaying phage overnight culture to each well. The plates were incubated for 2 hours at room temperature, washed with PBST and cMet-binding peptide-displaying phage was detected using an HRP-conjugated anti-M13 antibody.
# cMet-Fc fusion protein [2] = target: T1, cMet-Fc fusion protein; test: phage protein ELISA, cMet-Fc vs TRAIL-Fc
# Description: Protein phage ELISAs using peptide-displaying phage isolates from the various selection campaigns were performed to determine specificity of the peptides for cMet versus an unrelated Fc-fusion protein (TRAIL-Fc). Briefly, 384-well plates were coated overnight at 4 C with 0.5 μg/mL of cMet-Fc fusion protein or TRAIL-Fc fusion protein (background). The plates were blocked for 2 hours 37 C with 3% (w/v) BSA in PBS containing 0.05% (v/v) Tween-20 (PBST). The plates were washed with PBST and 100 μL of peptide-displaying phage were added to each well. The plates were incubated for 2 hours at room temperature and washed with PBST. cMet-binding peptide-displaying phage were detected using an HRP-conjugated anti-M13 antibody.
# human cMet on 3T3 cells = target: T2, human cMet on 3T3 cells (human, UniProt P08581 25-1390); test: phage whole cell ELISA, 3T3 human cMet vs 3T3
# T2 construct: whole, on cells; also called cell surface-expressed human cMet
# T2 sequence (P08581 25-1390): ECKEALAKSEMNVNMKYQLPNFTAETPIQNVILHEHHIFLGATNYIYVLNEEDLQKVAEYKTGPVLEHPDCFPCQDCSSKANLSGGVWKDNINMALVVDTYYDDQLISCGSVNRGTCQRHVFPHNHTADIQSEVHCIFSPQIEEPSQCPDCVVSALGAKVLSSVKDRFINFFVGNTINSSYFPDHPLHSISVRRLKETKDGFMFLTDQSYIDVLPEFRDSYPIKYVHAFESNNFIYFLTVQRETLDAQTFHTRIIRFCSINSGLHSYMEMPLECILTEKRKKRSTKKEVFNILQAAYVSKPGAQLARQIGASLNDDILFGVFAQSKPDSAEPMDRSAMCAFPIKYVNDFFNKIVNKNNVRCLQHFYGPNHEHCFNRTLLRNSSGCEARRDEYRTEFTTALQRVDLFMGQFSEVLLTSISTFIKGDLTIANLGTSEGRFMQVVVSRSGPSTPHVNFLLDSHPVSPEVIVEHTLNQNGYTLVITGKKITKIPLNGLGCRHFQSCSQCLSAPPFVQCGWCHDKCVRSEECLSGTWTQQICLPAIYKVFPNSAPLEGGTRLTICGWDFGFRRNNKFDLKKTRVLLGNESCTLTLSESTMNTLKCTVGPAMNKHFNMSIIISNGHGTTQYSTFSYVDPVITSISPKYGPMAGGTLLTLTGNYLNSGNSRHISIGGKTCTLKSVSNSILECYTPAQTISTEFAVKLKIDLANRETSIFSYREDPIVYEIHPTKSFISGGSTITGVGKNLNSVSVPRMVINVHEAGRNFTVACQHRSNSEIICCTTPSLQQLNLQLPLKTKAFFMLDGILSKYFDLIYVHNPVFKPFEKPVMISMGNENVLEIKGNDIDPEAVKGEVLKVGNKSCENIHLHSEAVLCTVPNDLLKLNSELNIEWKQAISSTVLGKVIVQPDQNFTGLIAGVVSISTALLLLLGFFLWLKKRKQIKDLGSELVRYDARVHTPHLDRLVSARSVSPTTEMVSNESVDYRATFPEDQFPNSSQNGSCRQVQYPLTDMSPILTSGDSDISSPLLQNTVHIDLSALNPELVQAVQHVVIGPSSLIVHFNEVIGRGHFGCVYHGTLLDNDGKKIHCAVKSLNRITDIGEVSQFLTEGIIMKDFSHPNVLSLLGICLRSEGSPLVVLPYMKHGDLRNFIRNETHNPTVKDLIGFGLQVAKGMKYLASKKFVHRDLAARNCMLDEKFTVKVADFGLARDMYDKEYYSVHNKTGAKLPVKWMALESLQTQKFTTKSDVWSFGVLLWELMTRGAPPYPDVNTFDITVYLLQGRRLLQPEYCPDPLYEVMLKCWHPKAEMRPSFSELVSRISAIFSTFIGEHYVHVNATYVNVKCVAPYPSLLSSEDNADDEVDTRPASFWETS
# Description: Whole cell ELISAs were performed using 3T3 cells that over-express human cMet. […] Briefly, 96-well plates were seeded with 10⁵ cells per well. The plates were centrifuged for 5 minutes at 1600 rpm to pellet the cells. The resulting cell layer was fixed with 0.1% (v/v) glutaraldehyde for 12 minutes at 37 C. […] Peptide-displaying phage also were blocked in the above solution for 1 hour at 37 C. 100 μL of blocked phage was then added to each well and the plates were incubated for 1 hour at room temperature. The plates were washed with PBST. cMet-binding peptide-displaying phage were detected using an HRP-conjugated anti-M13 antibody.
# cMet-Fc fusion protein [3] = target: T1, cMet-Fc fusion protein; test: phage ELISA on cMet-Fc, competitor HGF 500 ng/mL
# Description: as §1
# T1 sequence (P08581 25-932): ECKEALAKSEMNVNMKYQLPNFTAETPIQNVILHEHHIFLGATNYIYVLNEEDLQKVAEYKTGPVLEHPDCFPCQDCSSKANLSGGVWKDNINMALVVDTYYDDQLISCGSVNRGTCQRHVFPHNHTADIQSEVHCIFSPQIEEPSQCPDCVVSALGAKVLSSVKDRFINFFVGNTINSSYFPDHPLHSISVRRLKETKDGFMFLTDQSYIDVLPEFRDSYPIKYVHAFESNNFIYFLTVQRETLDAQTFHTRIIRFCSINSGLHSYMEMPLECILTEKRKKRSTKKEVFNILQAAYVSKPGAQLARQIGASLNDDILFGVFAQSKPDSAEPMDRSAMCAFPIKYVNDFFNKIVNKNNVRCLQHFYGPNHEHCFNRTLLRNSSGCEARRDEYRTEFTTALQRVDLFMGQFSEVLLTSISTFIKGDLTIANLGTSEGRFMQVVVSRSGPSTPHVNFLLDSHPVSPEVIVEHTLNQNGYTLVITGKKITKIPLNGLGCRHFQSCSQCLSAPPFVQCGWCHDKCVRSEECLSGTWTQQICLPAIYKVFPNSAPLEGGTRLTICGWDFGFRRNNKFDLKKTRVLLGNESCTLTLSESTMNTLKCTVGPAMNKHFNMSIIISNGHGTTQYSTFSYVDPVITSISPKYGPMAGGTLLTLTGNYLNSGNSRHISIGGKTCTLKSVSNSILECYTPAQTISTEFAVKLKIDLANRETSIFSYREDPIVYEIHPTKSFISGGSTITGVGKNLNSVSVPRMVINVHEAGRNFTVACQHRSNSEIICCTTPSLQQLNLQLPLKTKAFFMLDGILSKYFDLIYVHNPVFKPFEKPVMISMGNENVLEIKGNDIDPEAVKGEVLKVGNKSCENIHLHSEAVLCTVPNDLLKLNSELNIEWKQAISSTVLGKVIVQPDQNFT
Binder,% of binding in the absence of HGF (cMet-Fc fusion protein [1]) [%],fold over background (cMet-Fc fusion protein [2]) [fold],fold over background (human cMet on 3T3 cells) [fold],also measured
AGETVCYWLNGWFCVDDGT (on M13 phage) [peptide-displaying phage 274-B07],343,,,
GSHHTCLDGFAGWRCTEVAP (on M13 phage) [peptide-displaying phage 546-E02],,40.4,,
AGYSVCKGYPSFECAFFGT (on M13 phage) [peptide-displaying phage 336-D07],,,14.3,
AGETFCSGWPTFECMQWGT (on M13 phage) [peptide-displaying phage 547-H03],,,,% of binding in the absence of HGF (cMet-Fc fusion protein [3]): 43%
GSMLGCLFEHQNKYDCYVLAP (on M13 phage) [peptide-displaying phage 443-D04],,3,,
GSGDPCSPGPSINGHCSVMAP (on M13 phage) [peptide-displaying phage 453-A05],514,,,
AQFDRYWHFAWMDVSFSSGQSG (on M13 phage) [peptide-displaying phage 92-B05],,,1.23,
AQDPGFSKHSMGHGYPSKMNWG (on M13 phage) [peptide-displaying phage 115-G02],57,,,
AGLPKCSGPPWFSCYYGGT (on M13 phage) [peptide-displaying phage 545-A09],,,1.36,
GDLLVCKFDDKFWTETCEWADP (on M13 phage) [peptide-displaying phage 549-G05],,,14.5,
AGFWDCGWMMQDCHMHGT (on M13 phage) [peptide-displaying phage 470-C02],,36.9,,
AGQFYCSGPPTFQCIMIGT [peptide-displaying phage 550-F11],58,1.4,1.23,% of binding in the absence of HGF (cMet-Fc fusion protein [3]): 23%
